No end group written: not given here.
T1: TCF19 (DDCAC) PHD (UniProt Q9Y242 296-342)
T1 sequence: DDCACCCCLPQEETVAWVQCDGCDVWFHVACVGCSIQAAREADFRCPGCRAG


How the values were obtained:
TCF19 PHD W307Y = TCF19 PHD W307Y (UniProt Q9Y242); test: NMR titration
TCF19 PHD C324A = TCF19 PHD C324A (UniProt Q9Y242); test: NMR titration
TCF19 PHD R330Y = TCF19 PHD R330Y (UniProt Q9Y242); test: NMR titration
TCF19 (DDCAC) PHD = molecular target: T1, TCF19 (DDCAC) PHD; test: other fluorescence titration

Kd (TCF19 PHD W307Y) [µM]	Kd (TCF19 PHD C324A) [µM]	Kd (TCF19 PHD R330Y) [µM]	Kd (TCF19 (DDCAC) PHD) [µM]	Molecule
2000	440	400		H3K4me3 peptide (residues 1-12) (from UniProt P68431 2-13)
			4.7	ARTK(Me3)QTARKSTG (peptide, UniProt P68431 2-13, looked up) [H3K4me3 peptide (residues 1-12)]
